Experimental findings from patent US20250297013A1 (HK INNO N, published 2025) are described below.

Positions count from the first letter of the chain named.

To fix the notation:
B1: Anti-HLA-G antibody 4 (antibody, IgG1, V domains shown)
VH: EVQLLESGGGLVQPGGSLRLSCAASGFTFSDYSMSWVRQAPGKGLEWVSAISPDSGSKYYADSVKGRFTISRDNSKNTLYLQMNSLRAEDTAVYYCAKGPRHLTNNIFDYWGQGTLVTVSS
VL: QSVLTQPPSASGTPGQRVTISCTGSSSNIGSNYVSWYQQLPGTAPKLLIYADSNRPSGVPDRFSGSKSGTSASLAISGLRSEDEADYYCASWDYSLSGYVFGGGTKLTVL
B2: Anti-HLA-G antibody 3 (antibody, IgG1, V domains shown)
VH: B1 VH with S55R, G56S, S57L, K58E
VL: QFVLTQPPSVSAAPGQKVTISCSGSSSNIGHSYVSWYQQLPGTAPKLLIYGNIHRPSGVPDRFSGSTSGTSASLAITGLQADDEADYYCGVWDSSLSAVVFGGGTKLTVL
B3: Anti-HLA-G antibody 1 (antibody, V domains shown)
VH: EVQLLESGGGLVQPGGSLRLSCAASGFTFSDYAMSWVRQAPGKGLEWVSVISHDGDRVYYADSVKGRFTISRDNSKNTLYLQMNSLRAEDTAVYYCAKGPRRIANAIFDYWGQGTLVTVSS
VL: QLVLTQPPSVSGAPGQKVTISCSGSSSNIGHSYVSWYQQLPGTAPKLLIYGDNNRPSGVPDRFSGSKSGTSASLAITGLQAEDEADYYCQSYDSSLSGYVFGTGTKVTVL
B4: Anti-HLA-G antibody 2 (antibody, IgG1, V domains shown)
VH: B3 VH with D56G, R57S, V58I
VL: B3 VL with L2F, G12A, S26N, H31N, L40V, T43A, K46R, D52S, N53T

By Kd is commonly meant a measure of binding affinity in units of concentration. A lower Kd goes with a tighter complex. Usually IC50 stands for the concentration at which inhibition is half-maximal. Higher therefore signals a need for much substance.

One assay deals with T1, HLA-G dimer (signal peptide-b2m-HLA-G-6xHis antigen of Example 1, dimer fraction) (human).
T1 construct: also called HLA-G multimers
Briefly: SPR, HLA-G dimer.
B1 registered a Kd of 4.88 nM.
Regarding B2, binding was characterised by a dissociation constant (Kd) of 3.98 nM.
The same measure, in the same setting: the same measure for B3: 1.11 nM; for B4: 0.841 nM.

Another assay concerns the target T2, HLA-G antigen produced in Example 1 (signal peptide-b2m-HLA-G-6xHis; monomer or dimer not stated) (human).
T2 construct: also called b2m-HLA-G antigen
The assay can be described thus: Octet (BLI); form of the antigen not stated. In general terms: In BLI a coated tip is dipped into the sample, and binding shifts an interference pattern.
As to B1, the Kd was determined as 1.45 nM. That is a single-digit nanomolar value.
B2: the affinity, expressed as Kd, was 1.06 nM.
The same measure, in the same setting: in the case of B3 it was 0.284 nM; in that of B4, 0.549 nM.

In another assay the target is T1, HLA-G dimer (signal …). Briefly: CD8a block ELISA: dimeric antigen coated, antibody 0.391 nM, competitor CD8a-His 100 nM, anti-CD8a-HRP detection. In general terms: An ELISA detects its analyte on a solid surface through an enzyme-linked reagent.
Regarding B1, the “CD8a Block EIA (%)” value amounted to 32.1%.
With B2, the “CD8a Block EIA (%)” value came out at 37.7%.
On the same count and under the same terms, the same measure for B3: 39.5%; for B4: 39%.

The target in a further assay is T3, HLA-G monomer (signal peptide-b2m-HLA-G-6xHis antigen of Example 1, monomer fraction) (human).
T3 construct: also called b2m-HLA-G antigen
The assay can be described thus: SPR, HLA-G monomer.
For the molecule B2, the dissociation constant (Kd) is 28.1 nM.
Same read-out and setting: in the case of B3 it was 15 nM; in that of B4, 9.3 nM.

The next assay has as its target T2, HLA-G antigen produced in Example 1 …. The assay can be described thus: ILT2 block ELISA: competitor ILT-2-Fc coated, antigen of Example 1 pre-mixed with antibody dilutions, anti-His-HRP detection.
In the case of B1, the IC50 turned out to be 144 nM. This lies in the sub-micromolar range.
On the same count and under the same terms, the same measure for B2: 164 nM; for B3: 155 nM.
On the same count and under the same terms, the same measure for B4: 146 nM.
